Reference: US20100015126A1, “Methods of Binding of Cross-Beta Structures By Chaperones” (priority 2006, published 2010)

Legend:
[1] = molecular target: T1, human mitochondrial HSP60 (Homo sapiens, UniProt P10809); assay: ELISA: binding of HSP60 to immobilized (misfolded) protein ligands
T1 construct: Dr. W. van Eden, Utrecht University; host or cells: E. coli
Method: Recombinant human HSP60 with N-terminal His-tag was a kind gift of Dr. R. van der Zee and Prof. Dr. W. van Eden (Institute of Infectious Diseases and Immunology, Faculty of Veterinary Medicine, Utrecht University, Utrecht, The Netherlands), and was supplied in lyophilized form. The HSP60 was produced in E. coli and purified using Nickel-Sepharose. The HSP60 was lyophilized from 20-40 mM ammonium-bicarbonate solution, after purification, and stored at −20° C. The construct lacks the mitochondrial signal sequence. […] Before use, the lyophilized protein is dissolved at room temperature at 1 mg/ml in 20-40 mM NH4HCO3, resulting in a pH of 7.0. Aliquots are stored at −20° C. or −80° C. The mitochondrial HSP60 is a functional dimer of heptamers (MW(HSP60 monomer)=˜58 kDa), and is involved in multimer protein assembling and aids in transport of unfolded proteins across membranes. For the binding studies, at two occasions separate HSP60 solutions were prepared originating from the same batch of purified protein, lyophilized in separate Eppendorf cups.
Binding of chaperones to immobilized (misfolded) protein ligands was determined using an enzyme linked immuno sorbent assay (ELISA) approach. […] After 5 washes with wash buffer followed by two washes with PBS, binding of antibodies was assessed. […] Plates were read at 450 nm. […]

[2] = molecular target: T2, human BiP (Homo sapiens, UniProt P11021); assay: ELISA: binding of BiP-FLAG-His to immobilized (misfolded) protein ligands; details: ligands coated at 5 μg/ml; 6BB peptides and oxLDL 50 μg/ml
T2 construct: The human BiP gene except the signal peptide encoding region was obtained from Geneart (Germany); linker […]; made in house; host or cells: HEK 293E cells, transient transfection, PABC674 vector; secreted into the medium
T2 sequence (P11021 19-654): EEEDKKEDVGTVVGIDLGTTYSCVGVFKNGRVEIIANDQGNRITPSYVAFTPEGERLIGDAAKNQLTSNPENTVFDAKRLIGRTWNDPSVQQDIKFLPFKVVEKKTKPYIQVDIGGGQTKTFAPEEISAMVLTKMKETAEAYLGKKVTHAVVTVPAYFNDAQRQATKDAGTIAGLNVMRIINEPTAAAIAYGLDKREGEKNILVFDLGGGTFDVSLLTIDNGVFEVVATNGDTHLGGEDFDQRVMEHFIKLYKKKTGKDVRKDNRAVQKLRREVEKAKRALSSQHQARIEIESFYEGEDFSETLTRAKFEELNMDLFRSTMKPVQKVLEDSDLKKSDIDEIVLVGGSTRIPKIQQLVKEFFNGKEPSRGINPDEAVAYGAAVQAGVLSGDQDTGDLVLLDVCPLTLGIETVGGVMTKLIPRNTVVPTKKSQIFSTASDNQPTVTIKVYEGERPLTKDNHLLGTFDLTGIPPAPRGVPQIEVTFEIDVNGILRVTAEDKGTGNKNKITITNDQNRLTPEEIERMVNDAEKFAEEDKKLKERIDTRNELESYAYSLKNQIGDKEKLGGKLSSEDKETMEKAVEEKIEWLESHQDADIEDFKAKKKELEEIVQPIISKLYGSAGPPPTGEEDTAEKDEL
Method: Enzyme Linked Immunosorbent Assay for Testing of Chaperone Binding to Misfolded Proteins
Binding of chaperones to immobilized (misfolded) protein ligands was determined using an enzyme linked immuno sorbent assay (ELISA) approach. For this purpose 50 μl/well of potential ligands at indicated concentrations or coat buffer only for control and background measurement purposes, were coated overnight at 4° C. or coated for 1 h at room temperature, with motion, in 50 mM NaHCO3 pH 9.6 (coat buffer). In general, ligands were coated at 5 μg/ml, unless stated otherwise. For example, BiP binding peptides 6BB# and oxLDL were coated at 50 μg/ml. Native haemoglobin (Sigma-Aldrich, H7379), albumin, IgIV Gammagard and ovalbumin controls were prepared from lyophilized stocks. The controls were prepared by dissolving lyophilized proteins at 1 mg/ml in PBS upon resuspending by pipetting, followed by a 30 minutes period at the roller device, at room temperature. The protein solutions were centrifuged for 10 minutes at 16,000*g and diluted in coat buffer. […] After 5 washes with wash buffer followed by two washes with PBS, binding of antibodies was assessed. […] Plates were read at 450 nm. Triplicates were averaged and standard deviations calculated. […] Subsequently, sub-optimal concentrations of chaperones for binding to misfolded protein ligands are determined, and these concentrations are used for inhibition studies. […]

[3] = molecular target: T3, BiP-Sepharose (Homo sapiens, UniProt P11021); assay: BiP-Sepharose extraction of proteins from patient plasma, serum, synovial fluid and mass-spectrometric identification; assay type: binding; details: Sample B6: eluate of BiP-Sepharose contacted with RA patient IV synovial fluid
T3 construct: The human BiP gene except the signal peptide encoding region was obtained from Geneart (Germany); linker […]; made in house; host or cells: HEK 293E cells, transient transfection, PABC674 vector; secreted into the medium
T3 sequence (P11021 19-654): as above
Method: BiP was coated on CNBr-Sepharose (GE-Healthcare, Amersham Biosciences). Immobilization of BiP was performed essentially as described elsewhere in this application for NHS-Sepharose. CNBr-matrix was dissolved at 200 mg/ml in 1 mM HCl and treated the same as the NHS-matrix, except for an additional 5 minutes activation step in 1 mM HCl on a roller device before washing in this buffer. BiP was diluted in immobilization buffer (50 mM NaCl and 40 mM NaHCO3) to a concentration of 820 μg/ml. A total volume of 2 ml BiP solution (1640 μg BiP) was incubated with 360 mg beads. Negative control matrix was exposed to immobilization buffer, only. After overnight immobilization matrix was blocked with Tris and washed.
Six samples were incubated with the BiP-Sepharose, IgIV-Sepharose and the control-Sepharose: Normal pooled plasma, plasma of a patient I or of a patient II, with AL amyloidosis, serum of a patient III with RA (Rheumatoid Factor (RF) titer 682), control serum and synovial fluid of a patient IV with RA (RF titer 23). All samples were diluted 20× in HBS and applied to 200 μl beads in two volumes of 500 μl. One volume was incubated for 4 h at RT and supernatant was discarded after centrifugation (2 minutes at 1400 rpm). Subsequently, the second volume was applied to the same matrix and incubated overnight on a roller device at 4° C. […] To collect the eluates, the matrices were centrifuged and the two eluates were pooled for each sample.
Protein digests were desalted as described (Rappsilber et al., 2003), vacuum dried and dissolved in 2.5% formic acid.
For analysis of peptide mixtures, an Agilent 1100 HPLC system (Agilent Technologies) connected to a Thermo Finnigan LTQ-MS (Thermo Electron, Bremen, Germany) was used. Protein digests were injected on a trap column (Reprosil C18 RP (Dr Maisch, Germany), 20 mm×100 μm I.D.) at 5 μl/minute. Subsequently, the peptides were transferred with a split-reduced flow rate of 100 nL/minute solvent A (0.1 M acetic acid) on the analytical column (Reprosil C18 RP, 20 cm×50 μm I.D.). […] The column effluent was directly introduced into the ESI source of the mass spectrometer via a butt-connected nano-ESI emitter (New Objectives, Woburn, Mass.). The mass spectrometer was operated in the positive ion mode and parent ions were selected for fragmentation in data-dependent mode.
After mass spectrometric measurements, peak lists were generated using BioWorks software (Thermo Electron, Bremen, Germany). Protein identification was performed using Mascot software (www.matrixscience.com) by searching the IPIhuman database (version 3.24, downloaded from ftp://ftp.ebi.ac.uk/pub/databases/IPI/current) using the following settings: fully tryptic peptides, peptide tolerance 0.8 Da, MS/MS tolerance 0.9 Da, 1 missed cleavage allowed, carbamidomethyl (Cys) and oxidation (Met) as fixed and variable modification, respectively. The Scaffold software package (www.proteomesoftware.com) was used to parse the data and to filter peptides at a confidence level of 95%, allowing only protein identification with at least 2 peptides identified.

T1 sequence (P10809 27-573): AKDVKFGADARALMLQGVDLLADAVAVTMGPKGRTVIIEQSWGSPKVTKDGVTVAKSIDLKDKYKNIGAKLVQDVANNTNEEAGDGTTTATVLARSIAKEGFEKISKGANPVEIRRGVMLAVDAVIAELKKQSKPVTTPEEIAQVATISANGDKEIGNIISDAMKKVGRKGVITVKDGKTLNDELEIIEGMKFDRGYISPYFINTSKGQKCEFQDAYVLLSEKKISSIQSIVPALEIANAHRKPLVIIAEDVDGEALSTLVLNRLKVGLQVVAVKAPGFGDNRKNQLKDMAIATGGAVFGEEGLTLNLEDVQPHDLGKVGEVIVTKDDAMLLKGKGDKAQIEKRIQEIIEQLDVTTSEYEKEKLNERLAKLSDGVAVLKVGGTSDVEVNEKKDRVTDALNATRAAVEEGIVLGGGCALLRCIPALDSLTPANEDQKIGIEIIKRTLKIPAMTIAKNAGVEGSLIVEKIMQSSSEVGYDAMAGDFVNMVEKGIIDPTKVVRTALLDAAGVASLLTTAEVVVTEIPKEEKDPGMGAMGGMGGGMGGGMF

Row | Binding of concentration series of HSP60 to coated ligand [1] | Binding of concentration series of BiP to coated ligand [2] | # of peptides in sample A# [3] | Molecule
1 | did not bind | did not bind |  | ovalbumin: native chicken ovalbumin control (protein) GSIGAASMEFCFDVFKELKVHHANENIFYCPIAIMSALAMVYLGAKDSTRTQINKVVRFDKLPGFGDSIEAQCGTSVNVHSSLRDILNQITKPNDVYSFSLASRLYAEERYPILPEYLQCVKELYRGGLEPINFQTAADQARELINSWVESQTNGIIRNVLQPSSVDSQTAMVLVNAIVFKGLWEKAFKDEDTQAMPFRVTEQESKPVQMMYQIGLFRVASMASEKMKILELPFASGTMSMLVLLPDEVSGLEQLESIINFEKLTEWTSSNVMEERKIKVYLPRMKMEEKYNLTSVLMAMGITDVFSSSANLSGISSAESLKISQAVHAAHAEINEAGREVVGSAEAGVDAASVSEEFRADHPFLFCIKHIATNAVLFFGRCVSP
2 |  |  | 1 | Immunoglobulin heavy constant mu (protein) GSASAPTLFPLVSCENSPSDTSSVAVGCLAQDFLPDSITFSWKYKNNSDISSTRGFPSVLRGGKYAATSQVLLPSKDVMQGTDEHVVCKVQHPNGNKEKNVPLPVIAELPPKVSVFVPPRDGFFGNPRKSKLICQATGFSPRQIQVSWLREGKQVGSGVTTDQVQAEAKESGPTTYKVTSTLTIKESDWLGQSMFTCRVDHRGLTFQQNASSMCVPDQDTAIRVFAIPPSFASIFLTKSTKLTCLVTDLTTYDSVTISWTRQNGEAVKTHTNISESHPNATFSAVGEASICEDDWNSGERFTCTVTHTDLPSPLKQTISRPKGVALHRPDVYLLPPAREQLNLRESATITCLVTGFSPADVFVQWMQRGQPLSPEKYVTSAPMPEPQAPGRYFAHSILTVSEEEWNTGETYTCVVAHEALPNRVTERTVDKSTGKPTLYNVSLVMSDTAGTCY
